The results in this text go back to patent US20020176866A1.

In assay [1] the target is rat MHC class II (I-A or I-E) on splenic adherent cells (antigen presenting cells) (rat). Kind of assay: competition with 10 µM biotin-labeled MBP native peptide on rat splenic adherent cells, flow cytometry; competitor at 100 µM. A general note: Flow cytometry measures light scatter and fluorescence of single cells or particles in a stream.
Assay [2] shares this target. Kind of assay: competition with 10 µM biotin-labeled MBP (87-99) on rat splenic adherent cells, flow cytometry; competitor at 200 µM.

Non-standard residues stand in square brackets, D forms with d. No end group written: not given here.

B1: a83, A89, A91 peptide analog of human myelin basic protein (peptide)
peptide: D[dA]NPVVHAFANIVTPRT
As to B1, the percent inhibition of binding at 100 µM in assay [1] worked out at 25%.

B2: h88/A91, peptide analog of MBP (87-99) with D-histidine at residue 88 and alanine at residue 91 (peptide)
peptide: VV[dH]FFANIVTPRT
Turning to B2, in assay [2], the percent inhibition of binding at 200 µM was found to be 67.6%.

B3: MBP (87-99), human myelin basic protein residues 87-99 (peptide)
peptide: VVHFFKNIVTPRT
Molecule B3 displayed a percent inhibition of binding at 200 µM in assay [2] of 68.4%. Also, the percent inhibition of binding at 100 µM in assay [1] is 40%.
